This passage reports EC50, EC50 (read off the curve) and IC50 results from patent US20240209099A1.

Where two headings read alike, the source gives them in different places.

One may read the EC50 as the concentration needed to bring the measured effect to its halfway point. For orientation: EC50 (read off the curve) means the concentration needed to bring the measured effect to its halfway point. High values mean weaker potency, low ones greater potency. For orientation: IC50 means the concentration needed to halve the response being measured.

Test [1] addresses Recombinant Human VEGFR2/KDR Protein, His tag (hVEGFR2-his) (human) (UniProt P35968). Put plainly: ELISA, human VEGFR2-his coated, anti-human Fc-HRP. (In general: An ELISA detects its analyte on a solid surface through an enzyme-linked reagent.)
The target of test [2] is Recombinant Rhesus macaque VEGFR2/KDR Protein, His tag (rhesus macaque). As to the kind of experiment: ELISA, rhesus VEGFR2-his coated, anti-human Fc-HRP.
The target of test [3] is human VEGFR2 on HUVEC cells (human) (UniProt P35968). Put plainly: flow cytometry on HUVEC cells, MFI, anti-human IgG (H+L)-PE.
The target in test [4] is Recombinant Human VEGFR2/KDR Protein, His tag (hVEGFR2-his) (human) (UniProt P35968). Put plainly: competition ELISA: VEGF-A coated (0.25 ug/ml), antibody titrated together with 1 ug/ml human VEGFR2, detection with mouse anti-VEGFR2 serum and anti-mouse Fc-HRP; blocked ligand VEGF-A.
Test [5] concerns the target Recombinant Rhesus macaque VEGFR2/KDR Protein, His tag (rhesus macaque). Put plainly: ELISA, rhesus VEGFR2-his coated, anti-human Fc-HRP. The source holds these as a separate data set.
The target of test [6] is Recombinant Human VEGFR2/KDR Protein, His tag (hVEGFR2-his) (human) (UniProt P35968). Put plainly: competition ELISA: hVEGFR2-his coated (1 ug/ml), antibody titrated, then 0.3 ug/ml hVEGF-A added and bound VEGF-A detected; blocked ligand hVEGF-A.
Test [7] has as its target Recombinant Rhesus macaque VEGFR2/KDR Protein, His tag (rhesus macaque). Put plainly: competition ELISA: VEGF-A coated (0.25 ug/ml), antibody titrated together with 1 ug/ml rhesus VEGFR2, detection with mouse anti-VEGFR2 serum and anti-mouse Fc-HRP; blocked ligand VEGF-A.
The target in test [8] is Recombinant Human VEGFR2/KDR Protein, His tag (hVEGFR2-his) (human) (UniProt P35968). As to the kind of experiment: ELISA, hVEGFR2-his coated (0.5 ug/ml), anti-human Fc-HRP.
For test [9] the target is unchanged. Put plainly: competition ELISA: VEGF-A coated (0.25 ug/ml), antibody mixed with VEGFR2, detection with mouse anti-VEGFR2 serum and anti-mouse Fc-HRP; blocked ligand VEGF-A.
Test [10] deals with human VEGFR2 on HUVEC cells (human) (UniProt P35968). As to the kind of experiment: flow cytometry on HUVEC cells, percent shifted cells (Shift %), anti-human IgG-PE.

Recombinant Rhesus macaque VEGFR2/KDR Protein, His tag (rhesus macaque), sequence (chain, as listed by the source): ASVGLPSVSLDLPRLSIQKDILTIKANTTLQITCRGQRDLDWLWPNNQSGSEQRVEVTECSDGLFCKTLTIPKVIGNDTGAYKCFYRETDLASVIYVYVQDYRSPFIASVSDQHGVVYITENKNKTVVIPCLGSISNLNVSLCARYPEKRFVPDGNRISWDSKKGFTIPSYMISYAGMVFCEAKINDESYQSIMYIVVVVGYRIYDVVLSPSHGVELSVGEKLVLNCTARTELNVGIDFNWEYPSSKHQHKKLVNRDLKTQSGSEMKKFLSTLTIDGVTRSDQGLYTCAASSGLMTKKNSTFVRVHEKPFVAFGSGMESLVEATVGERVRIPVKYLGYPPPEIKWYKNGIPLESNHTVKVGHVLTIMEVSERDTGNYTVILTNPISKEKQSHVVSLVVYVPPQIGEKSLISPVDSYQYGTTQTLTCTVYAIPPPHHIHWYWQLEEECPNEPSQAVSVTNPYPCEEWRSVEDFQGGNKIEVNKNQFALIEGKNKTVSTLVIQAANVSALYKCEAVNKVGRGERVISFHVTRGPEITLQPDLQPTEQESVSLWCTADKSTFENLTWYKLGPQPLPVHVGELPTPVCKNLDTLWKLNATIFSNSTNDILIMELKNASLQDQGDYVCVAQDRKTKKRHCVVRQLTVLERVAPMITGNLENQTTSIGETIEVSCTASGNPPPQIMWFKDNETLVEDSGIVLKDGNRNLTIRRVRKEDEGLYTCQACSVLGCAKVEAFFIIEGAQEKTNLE
Recombinant Human VEGFR2/KDR Protein, His tag (hVEGFR2-his) (human), sequence (P35968 other isoform, or with tags, fused parts or gaps): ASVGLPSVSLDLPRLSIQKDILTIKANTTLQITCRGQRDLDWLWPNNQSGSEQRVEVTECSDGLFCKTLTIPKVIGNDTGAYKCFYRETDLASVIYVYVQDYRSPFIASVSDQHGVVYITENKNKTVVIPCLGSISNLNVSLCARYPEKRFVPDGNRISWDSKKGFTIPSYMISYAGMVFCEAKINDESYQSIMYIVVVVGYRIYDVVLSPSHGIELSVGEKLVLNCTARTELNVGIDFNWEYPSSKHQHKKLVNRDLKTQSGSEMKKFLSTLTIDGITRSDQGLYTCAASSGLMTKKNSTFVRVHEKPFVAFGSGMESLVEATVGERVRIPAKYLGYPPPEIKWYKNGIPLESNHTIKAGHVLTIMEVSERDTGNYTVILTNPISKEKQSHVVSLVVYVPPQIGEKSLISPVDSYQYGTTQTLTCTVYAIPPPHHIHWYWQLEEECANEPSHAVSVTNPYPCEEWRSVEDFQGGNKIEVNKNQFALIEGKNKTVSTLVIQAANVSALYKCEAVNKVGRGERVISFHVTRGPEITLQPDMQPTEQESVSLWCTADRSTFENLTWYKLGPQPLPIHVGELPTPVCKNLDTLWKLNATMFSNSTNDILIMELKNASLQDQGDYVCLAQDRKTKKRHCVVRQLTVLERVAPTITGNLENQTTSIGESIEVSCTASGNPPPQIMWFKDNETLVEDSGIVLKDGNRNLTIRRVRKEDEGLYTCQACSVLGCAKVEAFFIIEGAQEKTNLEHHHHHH
human VEGFR2 on HUVEC cells (human), sequence (P35968 20-1356 V297I/Q472H limits assumed): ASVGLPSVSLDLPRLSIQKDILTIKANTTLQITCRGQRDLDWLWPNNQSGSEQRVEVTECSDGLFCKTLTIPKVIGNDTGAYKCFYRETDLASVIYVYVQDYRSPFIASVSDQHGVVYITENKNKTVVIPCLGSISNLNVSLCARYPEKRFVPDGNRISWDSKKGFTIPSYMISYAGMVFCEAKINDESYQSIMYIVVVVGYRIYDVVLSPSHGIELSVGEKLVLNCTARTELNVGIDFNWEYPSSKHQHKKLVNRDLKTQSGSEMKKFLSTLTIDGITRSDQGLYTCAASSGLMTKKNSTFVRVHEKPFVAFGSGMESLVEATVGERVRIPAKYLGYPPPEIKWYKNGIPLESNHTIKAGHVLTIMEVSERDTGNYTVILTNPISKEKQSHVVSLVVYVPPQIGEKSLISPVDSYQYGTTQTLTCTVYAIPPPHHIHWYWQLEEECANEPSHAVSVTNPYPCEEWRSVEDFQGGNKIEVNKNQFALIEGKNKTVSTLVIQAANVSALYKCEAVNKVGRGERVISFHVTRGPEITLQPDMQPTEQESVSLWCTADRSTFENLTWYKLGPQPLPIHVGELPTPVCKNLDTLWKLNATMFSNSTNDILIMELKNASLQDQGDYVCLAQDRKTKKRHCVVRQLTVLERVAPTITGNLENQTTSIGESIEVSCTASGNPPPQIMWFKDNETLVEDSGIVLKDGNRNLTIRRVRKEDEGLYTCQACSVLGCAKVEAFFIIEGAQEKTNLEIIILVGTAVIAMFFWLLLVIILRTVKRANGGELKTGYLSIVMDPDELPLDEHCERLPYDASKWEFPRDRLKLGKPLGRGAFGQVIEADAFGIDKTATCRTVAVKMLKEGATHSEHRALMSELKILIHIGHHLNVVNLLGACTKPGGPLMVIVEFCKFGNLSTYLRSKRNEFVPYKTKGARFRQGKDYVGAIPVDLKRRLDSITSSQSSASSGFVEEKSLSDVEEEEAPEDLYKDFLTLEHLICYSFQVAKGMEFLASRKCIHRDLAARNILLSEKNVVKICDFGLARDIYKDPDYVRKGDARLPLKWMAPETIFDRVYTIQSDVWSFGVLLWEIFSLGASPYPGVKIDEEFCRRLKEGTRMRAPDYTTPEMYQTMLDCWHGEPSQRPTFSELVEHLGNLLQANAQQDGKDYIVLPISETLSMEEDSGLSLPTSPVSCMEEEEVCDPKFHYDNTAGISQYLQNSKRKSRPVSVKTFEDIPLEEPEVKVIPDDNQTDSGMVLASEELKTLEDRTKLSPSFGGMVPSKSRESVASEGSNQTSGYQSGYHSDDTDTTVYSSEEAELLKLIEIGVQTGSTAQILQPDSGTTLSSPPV

Turning to 1121B (benchmark antibody, Ramucirumab), the EC50 in test [1] came out at 0.00871 µg/mL; in test [2], 0.00919 µg/mL; in [5], 0.0088 µg/mL; in test [8], 0.00926 µg/mL; in [10], 0.0682 µg/mL. For the same substance, the EC50 (read off the curve) in [3] was found to be 0.1 µg/mL. Further, the IC50 in [4] was determined as 0.849 µg/mL; in test [6], 0.0285 µg/mL; in test [7], 0.805 µg/mL; in test [9], 0.126 µg/mL.
